B1: tail tube protein pb6 of bacteriophage T5 (natural protein, UniProt Q6QGE2 1-464, looked up)
chain: MSLQLLRNTRIFVSTVKTGHNKTNTQEILVQDDISWGQDSNSTDITVNEAGPRPTRGSKRFNDSLNAAEWSFSTYILPYKDKNTSKQIVPDYMLWHALSSGRAINLEGTTGAHNNATNFMVNFKDNSYHELAMLHIYILTDKTWSYIDSCQINQAEVNVDIEDIGRVTWSGNGNQLIPLDEQPFDPDQIGIDDETYMTIQGSYIKNKLTILKIKDMDTNKSYDIPITGGTFTINNNITYLTPNVMSRVTIPIGSFTGAFELTGSLTAYLNDKSLGSMELYKDLIKTLKVVNRFEIALVLGGEYDDERPAAILVAKQAHVNIPTIETDDVLGTSVEFKAIPSDLDAGDEGYLGFSSKYTRTTINNLIVNGDGATDAVTAITVKSAGNVTTLNRSATLQMSVEVTPSSARNKEVTWAITAGDAATINATGLLRADASKTGAVTVEATAKDGSGVKGTKVITVTAGG
notes: tail tube protein pb6 (TTP) of bacteriophage T5; structures compared over the 464 residues; Native phage-encoded protein as it stands in the purified tail; trimeric ring (last ring of the tube, under the p142 ring); also called TTPpb6; source: E. coli strain F infected with the mutant phage T5D20am30d; part of purified T5 tails (PEG precipitation, glycerol step gradient, ion exchange)
B2: tail completion protein p143 of bacteriophage T5 (natural protein, UniProt Q6QGE0 1-255, looked up)
chain: MSLSDLARQIIKEQLDTASRSENNKNTVVYSVETGLKDPTRDGTVAQVSFKFSKPVSQDLLNIRTASILKAVSSSLDLSGDLGALENLIQATAGKKSSVGKKRSTGRVQVNFGDPSDVEDGYSGAVTGASGRFVSNSNMKIILEIVAKEYLIKDMKKAGAPLKFRTGRFANSLKIKDVMLRDSETSKGSPELNVTYNYMTRPYSVFNPAVSTYRRLSLRPYPGARNPQKLIGEAIAKAARDLIHSRYKIKVNQGT
notes: tail completion protein p143 (TCP) of bacteriophage T5; 27.8 kDa, 255 residues; Native protein of the purified tail; the density was assigned to it by the fit of an AlphaFold2 model and because it was the only tail protein not yet localised; also called TCP_(p143); Neck1; source: E. coli strain F infected with the mutant phage T5D20am30d; part of purified T5 tails
B3: Baseplate Hub Protein pb3 of bacteriophage T5 (natural protein, UniProt Q6QGE9 1-949, looked up)
chain: MKKILDSAKNYLNTHDKLKTACLIALELPSSSGSAATYIYLTDYFRDVTYNGILYRSGKVKSISSHKQNRQLSIGSLSFTITGTAEDEVLKLVQNGVSFLDRGITIHQAIINEEGNILPVDPDTDGPLLFFRGRITGGGIKDNVNTSGIGTSVITWNCSNQFYDFDRVNGRYTDDASHRGLEVVNGTLQPSNGAKRPEYQEDYGFFHSNKSTTILAKYQVKEERYKLQSKKKLFGLSRSYSLKKYYETVTKEVDLDFNLAAKFIPVVYGVQKIPGIPIFADTELNNPNIVYVVYAFAEGEIDGFLDFYIGDSPMICFDETDSDTRTCFGRKKIVGDTMHRLAAGTSTSQPSVHGQEYKYNDGNGDIRIWTFHGKPDQTAAQVLVDIAKKKGFYLQNQNGNGPEYWDSRYKLLDTAYAIVRFTINENRTEIPEISAEVQGKKVKVYNSDGTIKADKTSLNGIWQLMDYLTSDRYGADITLDQFPLQKVISEAKILDIIDESYQTSWQPYWRYVGWNDPLSENRQIVQLNTILDTSESVFKNVQGILESFGGAINNLSGEYRITVEKYSTNPLRINFLDTYGDLDLSDTTGRNKFNSVQASLVDPALSWKTNSITFYNSKFKEQDKGLDKKLQLSFANITNYYTARSYADRELKKSRYSRTLSFSVPYKFIGIEPNDPIAFTYERYGWKDKFFLVDEVENTRDGKINLVLQEYGEDVFINSEQVDNSGNDIPDISNNVLPPRDFKYTPTPGGVVGAIGKNGELSWLPSLTNNVVYYSIAHSGHVNPYIVQQLENNPNERMIQEIIGEPAGLAIFELRAVDINGRRSSPVTLSVDLNSAKNLSVVSNFRVVNTASGDVTEFVGPDVKLAWDKIPEEEIIPEIYYTLEIYDSQDRMLRSVRIEDVYTYDYLLTYNKADFALLNSGALGINRKLRFRIRAEGENGEQSVGWATI
notes: Baseplate Hub Protein pb3 (BHP) of bacteriophage T5; Native protein of the purified tail tip; trimer; also called BHPpb3; source: E. coli strain F infected with the mutant phage T5D20am30d; part of purified T5 tails
B4: tail terminator protein p142 of bacteriophage T5 (natural protein, UniProt Q6QGE1 1-161, looked up)
chain: MDHRTSIAQAMVDRISKQMDGSQPDEYFNNLYGNVSRQTYKFEEIREFPYVAVHIGTETGQYLPSGQQWMFLELPILVYDKEKTDIQEQLEKLVADIKTVIDTGGNLEYTVSKPNGSTFPCEATDMIITSVSTDEGLLAPYGLAEINVTVRYQPPRRSLRR
notes: tail terminator protein p142 (TrP) of bacteriophage T5; a 161-residues protein; model compared over 156 residues; Native phage-encoded protein as it stands in the purified tail; hexameric ring that caps the tail tube; also called TrP_(p142); Trp_(p142); source: E. coli strain F infected with the mutant phage T5D20am30d; part of purified T5 tails (PEG precipitation, glycerol step gradient, ion …)
B5: distal tail protein pb9 of bacteriophage T5 (natural protein, UniProt Q6QGE8 1-204, looked up)
chain: MRLPDPYTNPEYPGLGFESVNLVDNDPMIRDELPNGKVKEVKISAQYWGINISYPELFPDEYAFLDSRLLEYKRTGDYLDVLLPQYEAFRVRGDTKSVTIPAGQKGSQIILNTNGTLTGQPKAGDLFKLSTHPKVYKITNFSSSGNVWNISLYPDLFITTTGSEKPVFNGILFRTKLMNGDSFGSTLNNNGTYSGISLSLRESL
notes: distal tail protein pb9 (DTP) of bacteriophage T5; Native protein of the purified tail tip; hexamer; also called DTPpb9; source: E. coli strain F infected with the mutant phage T5D20am30d; part of purified T5 tails

Columns and labels:
[1] = target: the molecule itself; test: cryo-EM structure; proximal extremity of native T5 tails (assembled in infected E. coli, purified as whole tails); single particle analysis, C3 symmetry imposed, 3.88 Å
[2] = target: B3; test: cryo-EM structure; tail tip of native purified T5 tails; particles recentred on the lower part of BHPpb3, symmetry relaxation, no symmetry imposed; 6–10 Å in the area of the additional density; AlphaFold2 model of TCP_(p143) flexibly fitted; conditions: partners not purified
[3] = target: the molecule itself; test: as above

| Binder | stoichiometry N [1] | stoichiometry N [3] | further results |
| --- | --- | --- | --- |
| B1 | 3 |  |  |
| B2 |  |  | stoichiometry N [2]: 1 copy per phage |
| B3 |  | 3 |  |
| B4 | 6 |  |  |
| B5 |  | 6 |  |

Reference: PMC11784142, “About bacteriophage tail terminator and tail completion proteins: structure of the proximal extremity of siphophage T5 tail” (Journal of Virology, 2024)
